In assay [1] the target is PDL1 on the surface of CHO-PDL1-CD3L cells (UniProt Q9NZQ7 19-290, limits assumed). The assay is described as follows: cell-based or functional assay.
Assay [2] concerns the target VEGFA protein (UniProt P15692-4 27-191, limits assumed). The assay is described as follows: cell-based or functional assay.
Assay [3] deals with T1, human VEGF-A-His (human, UniProt P15692 207-395).
T1 construct: also called hVEGF-A
T1 sequence: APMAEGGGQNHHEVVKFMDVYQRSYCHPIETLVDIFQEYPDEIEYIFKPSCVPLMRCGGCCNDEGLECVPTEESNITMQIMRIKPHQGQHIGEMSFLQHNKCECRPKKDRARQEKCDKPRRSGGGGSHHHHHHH
Description: SPR (Biacore T200), human VEGF-A-His coupled to the chip, fusion protein flowed over. The method, then: The affinities of FabT and FTF were detected by Biacore T200 instrument. The specific protocols were as follows. Human PD-L1-His (constructed by GeneScience, SEQ ID NO: 11) and human VEGF-A-His (constructed by GeneScience, SEQ ID NO: 13) were coupled to CMS biosensor chip (GE), and then the antibodies of different concentrations were flowed through the chip at a flow rate of 30 μL/min. The binding between the candidate antibody and antigen was performed with a binding time of 120 s and a dissociation time of 300 s. The kinetic fitting was performed using BIAevalution software (GE), and the results of affinity constants were obtained as shown in Table 6 and Table 7.

The target in assay [4] is T2, Human PD-L1-His (human, UniProt Q9NZQ7 19-238).
T2 construct: also called hPD-L1
T2 sequence (Q9NZQ7 19-238 limits assumed): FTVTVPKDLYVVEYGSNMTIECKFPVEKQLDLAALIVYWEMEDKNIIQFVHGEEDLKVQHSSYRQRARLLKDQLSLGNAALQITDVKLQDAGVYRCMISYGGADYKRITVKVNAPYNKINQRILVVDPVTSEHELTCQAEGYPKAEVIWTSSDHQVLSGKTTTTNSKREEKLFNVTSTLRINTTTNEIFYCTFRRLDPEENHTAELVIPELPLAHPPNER
The assay is described as follows: bridging ELISA, hPDL1-His and hVEGF121b-mFc as the two antigens; control diluted from 10 ug/ml.

By Kd is commonly meant the free concentration of one partner at which half of the binding sites on the other are occupied at equilibrium, for simple one-to-one binding. A word on the koff: it is a measure of how fast the partners let go of each other. A word on the kon: it is the second-order rate constant of association. A higher kon goes with fast association.

PDL1 on the surface of CHO-PDL1-CD3L cells, sequence (Q9NZQ7 19-290 limits assumed): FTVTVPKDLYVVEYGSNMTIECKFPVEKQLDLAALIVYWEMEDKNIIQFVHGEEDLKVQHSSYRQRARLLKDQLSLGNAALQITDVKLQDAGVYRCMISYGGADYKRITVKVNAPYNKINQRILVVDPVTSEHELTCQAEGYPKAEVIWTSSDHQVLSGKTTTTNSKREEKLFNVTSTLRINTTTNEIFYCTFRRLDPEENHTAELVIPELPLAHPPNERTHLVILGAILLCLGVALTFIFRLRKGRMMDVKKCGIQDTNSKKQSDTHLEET

B1: anti-human PD-L1 humanized monoclonal antibody 047 Ab-6 (antibody, V domains shown)
VH: EVQLVESGGGLVQPGGSLRLSCAASYFPFSDSWIHWVRQAPGKGLEWVAWISPYGGSSYYADSVQDRFTISADTSKNTAYLQMNSLRAEDTAVYYCAKRHWPGGFDHWGQGTLVTVSS
VL: DIQMTQSPSSLSASVGDRVTITCSASQDVTTAVAWYQQKPGKAPKLLIYSASFPYRGVPSRFSGSGSGTDFTLTISSLQPEDFATYYCQQYMYHPSTFGQGTKVEIK
Consider B1, for which, in assay [1], the “EC50, luciferase reporter in Jurkat-PD1-NFAT cells co-cultured with CHO-PDL1-CD3L cells” value was 3.55 nM.

B2: Eylea positive fusion protein (Fc fusion, not shown: a dimerising Fc or GST)
chain: SDTGRPFVEMYSEIPEIIHMTEGRELVIPCRVTSPNITVTLKKFPLDTLIPDGKRIIWDSRKGFIISNATYKEIGLLTCEATVNGHLYKTNYLTHRQTNTIIDVVLSPSHGIELSVGEKLVLNCTARTELNVGIDFNWEYPSSKHQHKKLVNRDLKTQSGSEMKKFLSTLTIDGVTRSDQGLYTCAASSGLMTKKNSTFVRVHEK
notes: also called control molecule Eylea
B2: the “IC50, luciferase reporter in NFAT-RE-Luc2P-KDR-HEK293 cells stimulated with 50 ng/ml VEGFA” value in assay [2] was 0.75 nM. Besides, in assay [3], the affinity, expressed as Kd, was 1.51 nM; the koff amounted to 0.000932 s⁻¹; the kon turned out to be 617000 M⁻¹ s⁻¹. For the same molecule, in assay [4], the binding result is “no binding (tested: 10 ug/ml)”.

The values above are taken from US20220073620A1 (CHANGCHUN GENESCIENCE PHARMACEUTICAL, published 2022).
